± gives the standard deviation of the averaged measurements.
Test: total protein half-life in vivo (active degradation + dilution); higher = more stable protein
[1] = E. coli NCM3722 delta-clpP delta-lon delta-hslV, growth: N-lim chemostat, doubling time 6 h
[2] = E. coli NCM3722 delta-clpP, growth: N-lim chemostat, doubling time 6 h
[3] = E. coli NCM3722 delta-hslV, growth: N-lim chemostat, doubling time 6 h
[4] = E. coli NCM3722 delta-lon, growth: N-lim chemostat, doubling time 6 h
[5] = E. coli NCM3722 delta-smpB, growth: N-lim chemostat, doubling time 6 h
[6] = wild type E. coli NCM3722, growth: C-lim chemostat, doubling time 3 h
[7] = wild type E. coli NCM3722, growth: C-lim chemostat, doubling time 6 h
[8] = wild type E. coli NCM3722, growth: C-lim chemostat, doubling time 12 h
[9] = wild type E. coli NCM3722, growth: N-lim chemostat, doubling time 6 h
[10] = wild type E. coli NCM3722, growth: N-lim chemostat, doubling time 12 h
[11] = wild type E. coli NCM3722, growth: P-lim chemostat, doubling time 6 h
[12] = wild type E. coli NCM3722, growth: P-lim chemostat, doubling time 12 h

Row | Sequence | total protein half-life in vivo [1] | total protein half-life in vivo [2] | total protein half-life in vivo [3] | total protein half-life in vivo [4] | total protein half-life in vivo [5] | total protein half-life in vivo [6] | total protein half-life in vivo [7] | total protein half-life in vivo [8] | total protein half-life in vivo [9] | total protein half-life in vivo [10] | total protein half-life in vivo [11] | total protein half-life in vivo [12]
1 | MAKTLYEKLFDAHVVYEAENETPLLYIDRHLVHEVTSPQAFDGLRAHGRPVRQPGKTFATMDHNVSTQTKDINACGEMARIQMQELIKNCKEFGVELYDLNHPYQGIVHVMGPEQGVTLPGMTIVCGDSHTATHGAFGALAFGIGTSEVEHVLATQTLKQGRAKTMKIEVQGKAAPGITAKDIVLAIIGKTGSAGGTGHVVEFCGEAIRDLSMEGRMTLCNMAIEMGAKAGLVAPDETTFNYVKGRLHAPKGKDFDDAVAYWKTLQTDEGATFDTVVTLQAEEISPQVTWGTNPGQVISVNDNIPDPASFADPVERASAEKALAYMGLKPGIPLTEVAIDKVFIGSCTNSRIEDLRAAAEIAKGRKVAPGVQALVVPGSGPVKAQAEAEGLDKIFIEAGFEWRLPGCSMCLAMNNDRLNPGERCASTSNRNFEGRQGRGGRTHLVSPAMAAAAAVTGHFADIRNIK [P0A6A6] | 4.76 ± 0.36 h | 1.53 ± 0.022 h | 2.72 ± 0.34 h | 3.63 ± 0.16 h | 2.28 ± 0.034 h | 1.877 ± 0.017 h | 3.17 ± 0.04 h | 3.71 ± 0.57 h | 2.9 ± 0.39 h | 3.91 ± 0.068 h | 2.32 ± 0.4 h | 5.41 ± 0.32 h
2 | MKKWSRHLLAAGALALGMSAAHADDNNTLYFYNWTEYVPPGLLEQFTKETGIKVIYSTYESNETMYAKLKTYKDGAYDLVVPSTYYVDKMRKEGMIQKIDKSKLTNFSNLDPDMLNKPFDPNNDYSIPYIWGATAIGVNGDAVDPKSVTSWADLWKPEYKGSLLLTDDAREVFQMALRKLGYSGNTTDPKEIEAAYNELKKLMPNVAAFNSDNPANPYMEGEVNLGMIWNGSAFVARQAGTPIDVVWPKEGGIFWMDSLAIPANAKNKEGALKLINFLLRPDVAKQVAETIGYPTPNLAARKLLSPEVANDKTLYPDAETIKNGEWQNDVGAASSIYEEYYQKLKAGR [P0AFK9] |  | 5.36 ± 0.48 h | 6.46 ± 0.61 h | 6.271 ± 0.061 h | 5.94 ± 0.35 h | 3.44 ± 0.58 h | 6.44 ± 0.57 h | 13.6 ± 0.72 h | 6.07 ± 0.22 h | 11.99 ± 0.032 h | 5.59 ± 0.35 h | 12.5 ± 0.19 h
3 | MSFSVQETLFSLLQHNAISGHENAVADVMLCEFRRQAKEVWRDRLGNVVARYGSDKPDALRLMIFAHMDEVGFMVRKIEPSGFLRFERVGGPAQVTMAGSIVTLTGDKGPVMGCIGIKSYHFAKGDERTQSPSVDKLWIDIGAKDKDDAIRMGIQVGTPVTLYNPPQLLANDLVCSKALDDRLGCTALLGVADAISTMELDIAVYLVASVQEEFNIRGIVPVLRRVKPDLAIGIDITPSCDTPDLHDYSEVRINQGVGITCLNYHGRGTLAGLITPPRLIRMLEQTALEHNIPVQREVAPGVITETGYIQVEQDGIPCASLSIPCRYTHSPAEVASLRDLTDCIRLLTALAGMSAAHFPVEPDSGTTQEAHPL | > 8 h |  |  |  |  | 3.05 ± 0.28 h | 6.24 ± 0.29 h | 10.9 ± 0.36 h |  |  |  | 10.2 h
4 | MNKTQLIDVIAEKAELSKTQAKAALESTLAAITESLKEGDAVQLVGFGTFKVNHRAERTGRNPQTGKEIKIAAANVPAFVSGKALKDAVK [P0ACF0] | 7.47 ± 0.039 h | 6.29 ± 0.51 h | 5.45 ± 0.31 h | 6.06 ± 0.22 h | 5.39 ± 0.12 h | 3.04 ± 0.19 h | 5.55 ± 0.72 h | 10 ± 0.23 h | 5.15 ± 0.27 h | 11.91 ± 0.1 h | 4.73 ± 0.92 h | 11.1 ± 1.5 h
5 | MQKREPVIIAPDYTDDELYEWMRQKINAAQDLKWANEARAKQAENLSALEQDITNLEKAAALSIARMITYPR |  |  |  |  |  | 3.16 h |  |  |  |  |  | 
6 | MLIPSKLSRPVRLDHTVVRERLLAKLSGANNFRLALITSPAGYGKTTLISQWAAGKNDIGWYSLDEGDNQQERFASYLIAAVQQATNGHCAICETMAQKRQYASLTSLFAQLFIELAEWHSPLYLVIDDYHLITNPVIHESMRFFIRHQPENLTLVVLSRNLPQLGIANLRVRDQLLEIGSQQLAFTHQEAKQFFDCRLSSPIEAAESSRICDDVSGWATALQLIALSARQNTHSAHKSARRLAGINASHLSDYLVDEVLDNVDLATRHFLLKSAILRSMNDALITRVTGEENGQMRLEEIERQGLFLQRMDDTGEWFCYHPLFGNFLRQRCQWELAAELPEIHRAAAESWMAQGFPSEAIHHALAAGDALMLRDILLNHAWSLFNHSELSLLEESLKALPWDSLLENPQLVLLQAWLMQSQHRYGEVNTLLARAEHEIKDIREDTMHAEFNALRAQVAINDGNPDEAERLAKLALEELPPGWFYSRIVATSVLGEVLHCKGELTRSLALMQQTEQMARQHDVWHYALWSLIQQSEILFAQGFLQTAWETQEKAFQLINEQHLEQLPMHEFLVRIRAQLLWAWARLDEAEASARSGIEVLSSYQPQQQLQCLAMLIQCSLARGDLDNARSQLNRLENLLGNGKYHSDWISNANKVRVIYWQMTGDKAAAANWLRHTAKPEFANNHFLQGQWRNIARAQILLGEFEPAEIVLEELNENARSLRLMSDLNRNLLLLNQLYWQAGRKSDAQRVLLDALKLANRTGFISHFVIEGEAMAQQLRQLIQLNTLPELEQHRAQRILREINQHHRHKFAHFDENFVERLLNHPEVPELIRTSPLTQREWQVLGLIYSGYSNEQIAGELEVAATTIKTHIRNLYQKLGVAHRQDAVQHAQQLLKMMGYGV | 6.02 ± 0.46 h |  | 0.718 h |  | 0.786 h | 0.61 ± 0.1 h | 1.05 ± 0.094 h | 1.38 ± 0.18 h |  | 0.803 h |  | 1.36 h
7 | MSANENNLIWIDLEMTGLDPERDRIIEIATLVTDANLNILAEGPTIAVHQSDEQLALMDDWNVRTHTASGLVERVKASTMGDREAELATLEFLKQWVPAGKSPICGNSIGQDRRFLFKYMPELEAYFHYRYLDVSTLKELARRWKPEILDGFTKQGTHQAMDDIRESVAELAYYREHFIKL [P0A784] |  | 4.86 ± 0.7 h | 4.688 ± 0.041 h | 6.132 ± 0.0019 h | 4.64 ± 0.34 h | 3.41 ± 0.36 h |  | 13 ± 1.9 h | 4.65 ± 0.63 h | 8.25 ± 0.81 h | 5.87 ± 0.32 h | 13.6 ± 0.93 h

— the supplement of paper PMC11246515
